Results published in paper doi:10.1101/2020.05.01.072124.
Where two headings read alike, the source gives them in different places.

Columns and labels:
[1] = molecular target: Recombinant MEK1 (immobilised in SPR) (human) (UniProt Q02750); experiment: SPR
[2] = molecular target: Recombinant MEK1 (immobilised in SPR) (human) (UniProt Q02750); experiment: SPR; remark: listed apart in the source

- Kd [1]: 2.09 µM
- Kd [2]: 8 µM
Substance: HIS-CCS (copper chaperone for superoxide dismutase) (from UniProt O14618 1-274) (natural protein)
